Reference: patent publication US20100092481A1 (INSTITUTE FOR RESEARCH IN BIOMEDICINE, published 2010)

Experiments:
[1] = target: T1, hCMV gH, gL, UL128, UL130 and UL131A co-expressed in HEK293T cells (human cytomegalovirus, UniProt P12824 24-743; P16832 31-278; P16837 1-171; P16772 1-214); assay: cell cross-competition, 20x excess; competitor 10F7-biotin
T1 construct: whole, on cells; also called gH + gL + UL128 + UL130 + UL131A; gH/gL/UL128-130 complex

[2] = target: T1, hCMV gH, gL, UL128, UL130 and UL131A …; assay: cell cross-competition, 20x excess; competitor 8I21-biotin
[3] = target: T1, hCMV gH, gL, UL128, UL130 and UL131A …; assay: cell cross-competition, 20x excess; competitor 4I22-biotin
[4] = target: T1, hCMV gH, gL, UL128, UL130 and UL131A …; assay: cell cross-competition, 20x excess; competitor 2F4-biotin
[5] = target: T1, hCMV gH, gL, UL128, UL130 and UL131A …; assay: cell cross-competition, 20x excess; competitor 4N10-biotin
[6] = target: T1, hCMV gH, gL, UL128, UL130 and UL131A …; assay: cell cross-competition, 20x excess; competitor 8J16-biotin
[7] = target: T1, hCMV gH, gL, UL128, UL130 and UL131A …; assay: cell cross-competition, 20x excess; competitor 1F11-biotin
[8] = target: T2, hCMV UL130 and UL131A co-expressed in HEK293T cells (human cytomegalovirus, UniProt P16772 1-214); assay: cell-based or functional assay
T2 sequence (P16772 whole entry): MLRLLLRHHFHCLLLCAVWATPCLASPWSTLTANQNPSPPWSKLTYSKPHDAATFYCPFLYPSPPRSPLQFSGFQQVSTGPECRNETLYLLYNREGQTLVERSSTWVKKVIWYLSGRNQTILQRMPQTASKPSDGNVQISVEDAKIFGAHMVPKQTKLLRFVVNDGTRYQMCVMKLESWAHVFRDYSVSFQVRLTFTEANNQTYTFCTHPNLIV

[9] = target: T1, hCMV gH, gL, UL128, UL130 and UL131A …; assay: cell cross-competition, 20x excess; competitor 5A2-biotin
[10] = target: T1, hCMV gH, gL, UL128, UL130 and UL131A …; assay: cell cross-competition, 20x excess; competitor 2C12-biotin
[11] = target: T2, hCMV UL130 and UL131A co-expressed in …; assay: cell-based or functional assay; remark: listed apart in the source
[12] = target: T1, hCMV gH, gL, UL128, UL130 and UL131A …; assay: cell cross-competition, 20x excess; competitor 15D8-biotin
[13] = target: T1, hCMV gH, gL, UL128, UL130 and UL131A …; assay: cell cross-competition, 20x excess; competitor 6G4-biotin

Binder	Inhibition of binding (%) [1] [%]	Inhibition of binding (%) [2] [%]	Inhibition of binding (%) [3] [%]	Inhibition of binding (%) [4] [%]	Inhibition of binding (%) [5] [%]	Inhibition of binding (%) [6] [%]	Inhibition of binding (%) [7] [%]	90% Neutralization ARPE (hCMV VR1814) [8] [µg/mL]	90% Neutralization MRC-9 (hCMV VR1814) [8] [µg/mL]	Inhibition of binding (%) [9] [%]	Inhibition of binding (%) [10] [%]	50% Neutralization ARPE (hCMV VR1814) [11] [µg/mL]	50% Neutralization MRC-9 (hCMV VR1814) [11] [µg/mL]	Inhibition of binding (%) [12] [%]	Inhibition of binding (%) [13] [%]
4I22 (antibody, V domains shown, human IgG mAb; also called 4I22-biotin) VH: QVQLVESGGGVVQPGRSLRLSCVASGFTFSSYAMHWVRQAPGKGLEWVAVISYDGDNKFYADSVKGRFRISRDTSKNTLYLEMNSLRAADTAIYYCAREELVGLMPPYYNYGLDVWGQGTTVTVSS VL: QSVLTQPPSVSAAPGQKVTISCSGSNSNIGNNYVSWYQQLPGRAPKLLIYDNDHRPSGIPDRFSGSKSGTSATLVITGLQTGDEADYYCETWDTSLSAAVVFGGGTKLTVL	100	0	100	100	0	0	100	0.0015	> 10	0	0	< 0.01	> 2	–	–
8L13 (antibody, V domains shown, human IgG mAb) VH: QVQLLESGGGVVQPGRSLRLSCAASGFTFSNYGMHWVRQAPGKGLEWVAVIWNDGSKKYYAESVKGRFTISRDNSKNTVYLQMNSLRAEDTAVYYCARDEGVQMVFAMPDYGMDVWGQGTTVTVSS VL: SYELTQPPSVSVSPGQTASITCSGDKLGDKFACWYQQRPGQSPILVIYQDSKRPSGIPERFSGSNSGNTATLTIRGTQAMDEADYYCQAWDSSTAHYVFGTGTKVTVL	100	–	–	–	–	–	100	0.001	> 10	–	–	< 0.01	> 2	–	–
4N10 (antibody, V domains shown, human IgG mAb; also called 4N10-biotin) VH: QVQLVQSGAEVKKPGSSVRVSCKASGGTFSSYVIIWVRQAPGQGLEWMGGVIPIFDTVNYAQKFQGRVTITADESTSTAYMELSSLKSEDTAVYYCARGILAYCGGDCYNTPYGMDVWGQGTTVTVSS VL: DIQMTQSPSILSASVGDRVTITCRASQSISSWLAWYQQKPGKAPKLLIYKASSLEIGVPSRISGSGSGTEFTLTISSLQPDDFATYYCQQYNSSWTFGQGTKVEIK	0	90	0	0	100	–	0	0.02	> 10	100	0	< 0.001	≤ 2	0	0
10F7 (antibody, V domains shown, human IgG mAb; also called 10F7-biotin) VH: EVQLVESGGGLVQPGRSLRLSCTASGFTFGDYAMSWFRQAPGKGLEWVGFIRSKAYGGTTEYAASVKGRFTISRDDSKSIAYLQMNSLKTEDTAVYYCTRASSLLWLLNPQPNFDYWGQGTLVTVSS VL: SYVLTQPPSVSVAPGQTARITCGGNNIGSNNVHWYQQKPGQAPVLVVYDDSDRPSGIPERFSGSNSGNTATLTISRVEAGDEADYYCQVWDSSSDHPVFGGGTKLTVL	100	0	100	100	0	–	100	0.002	> 10	0	0	< 0.01	≤ 2	0	0
10P3 (antibody, V domains shown, human IgG mAb) VH: EVQLVESGGGLVRPGGSLRLSCAASGFTFHNYRMNWVRQAPGKGLEWVANIKQDGSEKSYVDSVRGRFTTSRDNSKNSLYLQINSLRAEDTAVYYCARGEGYTYGVVYSYSAMDVWGQGTTVIVSS VL: SYELTQPPSVSVSPGQTARITCSGNVLPNQYASWYQQKPGQAPVLVIYKDTERPSGIPGRFSGSSSGTTVTLTISGVQAEDEADYYCQSADSSGADYVFGTGTKVTVL	–	0	0	0	–	–	0	0.0025	> 10	–	0	< 0.001	> 2	0	0
15D8 (antibody, V domains shown, human IgG mAb; also called 15D8-biotin) VH: EVQLVQSGAEVKKPGESLKISCQASGYSFTNYWIAWVRQMPGKGLEWMGIIYPGDSDIKYSPSFRGQVTISADKSISNAFLQWRSLRASDTAMYYCARHAIRGDGFDYWGQGTLVTVSS VL: SYELTQPPSVSVSPGQTATITCSGDKLGEKYACWYQQKPGQSPVLVMYQDTKRPSGIPERFSGSNSGNTATLTISGTRAMDEADYYCQAWDTNTVIFGGGTKLTVL	0	0	0	0	0	–	0	–	–	0	0	–	–	100	0
8I21 (antibody, V domains shown, human IgG mAb; also called 8I21-biotin) VH: LVELVESGGGVVQPGRSLRLSCAASGFTFSSDGMHWVRQSPGRGLEWVAFISSDGSTPYYADSVKGRFTISRDNSKNTLYLQMNSLRAEDTAMYFCAKDWALFRWLRTFDHWGQGTLVTVSS VL: not shown	–	100	0	0	90	–	0	–	–	95	0	–	–	0	0
3G16 (antibody, V domains shown, human IgG mAb; also called 3G16-biotin) VH: QSALTQPASVSGSPGESITISCTGTISDVGAYNSVSWYQQHSGTAPELIIYDVTNRPAGVSSRFSGSKSGNTASLTISWLQSEDEAEYYCSSYTTSDTYVFGSGTQVTVL V domain: RAQLVQSAAEMKNPGASVKVSCEASGYTFTGYYVHWMRQAPGQGLEWMGWINPMTGATKSPQKFQGRVTMTRDTSTTATHIELTRLRSDDSAVFFCARGGPTSTRITGKRHFDLWGRGTLITVAS	–	0	–	–	–	–	–	–	–	–	0	–	–	–	0
